Tests used:
[1] = target: Hfq wild-type (Escherichia coli) (UniProt P0A6X3); assay: X-ray crystallography; conditions: BLI: 25 mM Tris pH 7.5, 50 mM NaCl, 50 mM KCl, 1 mM MgCl2, 1 mM DTT, 0-500 nM Hfq, temperature not stated; EMSA: 1x structure buffer, 1 ug yeast RNA, 37 C …
[2] = target: Hfq wild-type (Escherichia coli) (UniProt P0A6X3); assay: competition; conditions: BLI: 25 mM Tris pH 7.5, 50 mM NaCl, 50 mM KCl, 1 mM MgCl2, 1 mM DTT, 0-500 nM Hfq, temperature not stated; EMSA: 1x structure buffer, 1 ug yeast RNA, 37 C …
[3] = target: Hfq wild-type (Escherichia coli) (UniProt P0A6X3); assay: EMSA; conditions: BLI: 25 mM Tris pH 7.5, 50 mM NaCl, 50 mM KCl, 1 mM MgCl2, 1 mM DTT, 0-500 nM Hfq, temperature not stated; EMSA: 1x structure buffer, 1 ug yeast RNA, 37 C …
[4] = target: Hfq wild-type (Escherichia coli) (UniProt P0A6X3); assay: BLI; conditions: BLI: 25 mM Tris pH 7.5, 50 mM NaCl, 50 mM KCl, 1 mM MgCl2, 1 mM DTT, 0-500 nM Hfq, temperature not stated, EMSA: 1x structure buffer, 1 ug yeast RNA, 37 C …
Hfq66 [5] = target: Hfq66 (UniProt P0A6X3); assay: BLI; conditions: BLI: 25 mM Tris pH 7.5, 50 mM NaCl, 50 mM KCl, 1 mM MgCl2, 1 mM DTT, 0-500 nM Hfq, temperature not stated; EMSA: 1x structure buffer, 1 ug yeast RNA, 37 C …
[6] = target: HfqRim R19A;P21A;Q33A;Q35A;T49A;R66A (UniProt P0A6X3); assay: BLI; conditions: BLI: 25 mM Tris pH 7.5, 50 mM NaCl, 50 mM KCl, 1 mM MgCl2, 1 mM DTT, 0-500 nM Hfq, temperature not stated; EMSA: 1x structure buffer, 1 ug yeast RNA, 37 C …
Hfq66 [7] = assay: BLI; conditions: 1 uM RydC; BLI: 25 mM Tris pH 7.5, 50 mM NaCl, 50 mM KCl, 1 mM MgCl2, 1 mM DTT, 0-500 nM Hfq, temperature not stated; EMSA: 1x structure buffer, 1 ug yeast RNA, 37 C …; scale: fold lower affinity than without RydC

**Q.** “GGCUUCCGAUGUAGACCCGUCCUCCUUCGCCUGCGUCACGGGUCCUGGUUAGACGCAGGCGUUUUCUG [RydC (crystal)]” was tested. Which binding [1] did it give?
**A.** binds

**Q.** How did the binding [2] turn out when “GGUUCCGAUGUAGACCCGUCCUCCUUCGCCUGCGUCACGGGUCCUGGUUAGACGCAGGCGUUUUCU [RydC (EMSA transcript)]” was run?
**A.** binds

**Q.** What about the binding [3] of the same substance?
**A.** binds

**Q.** With “GGUUGUUUAUAUUACGAUAAUUAUUAGGCAUUAACGGGAACCGGAGCGUUCCCGAUUCACCAUGGAUGGCCUUUUCGGCAAGGGCUCCUCCCUUCCUCUGUUCUACGUCGGAUAACUGGCUCACGGAAUUGUCCGUGGG [cfa1]” as the substance, how does the Kd [4] read?
**A.** binds

**Q.** What about the binding (Hfq66 [5]) of the same substance?
**A.** binds

**Q.** What about the Kd [6] of the same substance?
**A.** binds

**Q.** What does the source list for cfa1?
**A.** binding signal (fold lower affinity than without RydC) ([4]; 1 uM RydC): 5; binding signal (Hfq66 [7]): 100

From article PMC4337610
